The supplement of paper PMC10126150
± gives the standard deviation of the averaged measurements.

System: ATP
Experiment: switch fluorescence ratio, 500 uM ATP over buffer (Cy3 cluster intensity, sum of 5 cycles each) (fold (ratio)); higher = stronger signal-on switching upon ATP binding; sequences stand for … in TCGTCGGCAGCGTCAGATGTGTATAAGAGACAGTTTTTTTTTTTTTTTTTTTTTTTTT…TC
Settings: aptamer strand: ATP DNA aptamer (quencher-CACCTGGGGGAGTATTGCGGAGGAAGG + anchor), 100 nM annealed; ATP concentration: 500 uM
Summary of the method: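 Between each of five buffer/ATP cycles, the flow-cell was stripped with NaOH and re-annealed. Each cycle imaged Cy3-labelled switching-strand clusters, annealed to 100 nM quencher-labelled ATP aptamer on a modified Illumina MiSeq flow-cell, first in selection buffer and then after 15 min with 500 uM ATP at 22 °C. The fluorescence ratio is summed target-cycle over summed buffer-cycle Cy3 intensity per cluster, averaged per switch-domain sequence, with clusters outside 100-1000 RFU excluded.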
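Further: ATP exposure 15 min at 22 °C before imaging.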

Sequence	switch fluorescence ratio
GATGAAATGT	0.994 ± 0.015
GATGAATGAC	1.02 ± 0.016
GATGAATGTC	1.04 ± 0.13
GATGAATTGC	1.01 ± 0.033
GATGACAGGG	1.01 ± 0.12
GATGAGCCGG	1 ± 0.027
GATGAGGATG	0.987 ± 0.014
GATGAGGGGT	0.986 ± 0.038
GATGATGATG	1.014 ± 0.0022
GATGATGCTG	1.03 ± 0.017
GATGATGTAT	1.01 ± 0.033
GATGATTGGT	0.998 ± 0.015
GATGATTTTA	1.02 ± 0.042
GATGCGGTG	1 ± 0.012
GATGCGGTTA	0.988 ± 0.031
GATGCGGTTT	0.994 ± 0.019
GATGCTCCTT	1.05 ± 0.031
GATGCTCGAG	1 ± 0.016
GATGCTGGCG	1.01 ± 0.052
GATGGACCTT	1.08 ± 0.11
GATGGAGTGT	0.978 ± 0.018
GATGGAGTTG	1.013 ± 0.0053
GATGGCCCTT	0.99064 ± 0.00065
GATGGCTGTG	1.021 ± 0.01
GATGGGAGGA	0.9639 ± 0.005

Sequence	switch fluorescence ratio
GATGGGAGTG	1 ± 0.029
GATGGGATTG	0.966 ± 0.037
GATGGGCTCG	0.988 ± 0.025
GATGGGGATG	0.9677 ± 0.0045
GATGGGGATT	1.04 ± 0.069
GATGGGGCGC	0.975 ± 0.069
GATGGGGCGT	0.989 ± 0.055
GATGGGGTCC	0.949 ± 0.015
GATGGGGTGG	1 ± 0.016
GATGGGTACG	1.02 ± 0.042
GATGGGTCGT	1 ± 0.033
GATGGGTCTG	0.948 ± 0.014
GATGGGTTCT	0.9926 ± 0.0044
GATGGGTTGA	1.06 ± 0.03
GATGGGTTGG	0.9899 ± 0.008
GATGGTAGCT	1.04 ± 0.074
GATGGTATGG	1.007 ± 0.0052
GATGGTGAGA	1.02 ± 0.065
GATGGTTAAC	1.01 ± 0.0045
GATGGTTGTG	0.95 ± 0.037
GATGTACAGT	1.035 ± 0.0072
GATGTAGGAA	1.013 ± 0.0065
GATGTATGTA	0.973 ± 0.021
GATGTATTCG	1.001 ± 0.0089
GATGTCAAGA	1.01 ± 0.023

Sequence	switch fluorescence ratio
GATGTCCCGG	0.987 ± 0.022
GATGTCGTGC	1.03 ± 0.031
GATGTGAGCC	1.01 ± 0.018
GATGTTAATA	0.985 ± 0.085
GATGTTAGTG	1.003 ± 0.008
GATGTTCAGG	0.9875 ± 0.0011
GATGTTGTAT	1.01 ± 0.021
GATGTTGTGG	0.9751 ± 0.0029
GATGTTTAAT	0.991 ± 0.029
GATGTTTGCG	0.994 ± 0.034
GATGTTTTAC	0.998 ± 0.025
GATTAAAGTC	1.03 ± 0.034
GATTAACGGT	1.012 ± 0.0084
GATTAAGGT	0.992 ± 0.014
GATTACAGTG	1.02 ± 0.047
GATTACGGGA	1.052 ± 0.0098
GATTAGAAGT	0.996 ± 0.016
GATTAGGCAT	0.996 ± 0.039
GATTAGGTGA	1.06 ± 0.014
GATTATAGTA	0.952 ± 0.027
GATTATCATT	0.9669 ± 0.0093
GATTATTCTG	0.966 ± 0.039
GATTATTTGA	0.992 ± 0.061
GATTCACGGT	1.01 ± 0.02
GATTCACGTT	1.052 ± 0.0043

Sequence	switch fluorescence ratio
GATTCAGCGG	0.97 ± 0.015
GATTCAGGAA	1 ± 0.047
GATTCAGGTA	1.01 ± 0.026
GATTCCAGTT	1.01 ± 0.032
GATTCGTGAC	1.03 ± 0.052
GATTCTCTAT	1.008 ± 0.0033
GATTCTTGTT	1.02 ± 0.046
GATTGAATGG	0.985 ± 0.055
GATTGAATTT	0.989 ± 0.032
GATTGAGGAA	0.9864 ± 0.0061
GATTGATGGT	0.992 ± 0.021
GATTGCAGCG	1.002 ± 0.0016
GATTGCCTGT	0.981 ± 0.029
GATTGCGAGA	1.01 ± 0.036
GATTGCGGGC	1.03 ± 0.011
GATTGGAGGG	0.997 ± 0.026
GATTGGCACC	0.965 ± 0.014
GATTGGCAGC	1.015 ± 0.0035
GATTGGGGGC	1.04 ± 0.12
GATTGGGTTC	0.9685 ± 0.0036
GATTGGTTGT	1.01 ± 0.022
GATTGTAAAG	1.021 ± 0.01
GATTGTGACG	1.06 ± 0.057
GATTGTGCCG	1.03 ± 0.061
GATTGTTAGA	0.9891 ± 0.0081

Sequence	switch fluorescence ratio
GATTGTTCGT	1.031 ± 0.0085
GATTTAACGG	1.01 ± 0.038
GATTTAAGTT	0.9988 ± 0.0098
GATTTACGAT	1.026 ± 0.0019
GATTTAGGTG	1.12 ± 0.0065
GATTTCCCCG	1.18 ± 0.028
GATTTCCTGG	1.01 ± 0.02
GATTTGAATT	0.977 ± 0.025
GATTTGAGCG	0.9852 ± 0.0046
GATTTGAGTG	0.959 ± 0.027
GATTTGCGGG	0.9833 ± 0.0069
GATTTGTTTT	0.994 ± 0.013
GATTTTAGAG	0.9809 ± 0.003
GATTTTATTG	1.01 ± 0.017
GATTTTCAGA	0.998 ± 0.027
GATTTTCCTA	0.9608 ± 0.0014
GATTTTGGGT	1.02 ± 0.038
GATTTTGGTC	0.967 ± 0.054
GATTTTGTAG	1.01 ± 0.028
GATTTTGTCT	0.9923 ± 0.0099
GATTTTGTTT	0.996 ± 0.027
GATTTTTCAA	1 ± 0.021
GATTTTTGCC	1.01 ± 0.031
GATTTTTTAG	0.998 ± 0.018
GATTTTTTAT	0.999 ± 0.058

Sequence	switch fluorescence ratio
GCAAAAAGGA	1.6 ± 0.89
GCAAAAAGGT	0.996 ± 0.029
GCAAAAGAGA	0.994 ± 0.032
GCAAAAGGAA	0.975 ± 0.022
GCAAAAGGGC	1.02 ± 0.014
GCAAATGATG	1.01 ± 0.012
GCAACCGAGG	1.04 ± 0.064
GCAAGAAAAA	1.023 ± 0.0056
GCAAGACATT	1.12 ± 0.019
GCAAGAGGGT	1 ± 0.028
GCAAGCTGGG	1.01 ± 0.014
GCAATCATTC	1.18 ± 0.087
GCAATTGATG	1.04 ± 0.017
GCAATTGGGT	1.08 ± 0.012
GCAATTGTCG	1.02 ± 0.046
GCACATAGCT	1.01 ± 0.025
GCACATCTGT	0.99 ± 0.056
GCACATGGCC	1.03 ± 0.02
GCACCCGTAC	1.52 ± 0.037
GCACCTATGG	0.979 ± 0.025
GCACGCAGGA	1.054 ± 0.006
GCACGGATGT	1.029 ± 0.0097
GCACGGGGAA	1.02 ± 0.028
GCACTAAACT	1.05 ± 0.057
GCACTCGGCT	0.991 ± 0.0047

Sequence	switch fluorescence ratio
GCACTTGGGG	0.998 ± 0.057
GCACTTGGTC	0.989 ± 0.011
GCAGAAAAAA	0.988 ± 0.028
GCAGAATGCA	0.9861 ± 0.0024
GCAGACAGCT	1.037 ± 0.0085
GCAGACATAG	0.983 ± 0.025
GCAGACCATT	1.049 ± 0.0067
GCAGCAGATG	1.077 ± 0.0072
GCAGCATCGG	1.12 ± 0.021
GCAGCATCTG	1.01 ± 0.024
GCAGCATGC	1.1 ± 0.17
GCAGCCTGCT	0.985 ± 0.032
GCAGCCTGTT	0.994 ± 0.011
GCAGCTGGCT	1.02 ± 0.11
GCAGGAAGGG	0.977 ± 0.019
GCAGGAATTT	1 ± 0.038
GCAGGAGGGA	1.01 ± 0.039
GCAGGCAACT	0.995 ± 0.018
GCAGGCCACA	1.11 ± 0.065
GCAGGCGGGG	1.02 ± 0.034
GCAGGGACAA	1.01 ± 0.018
GCAGGGACCC	1.12 ± 0.12
GCAGGGAGGG	1 ± 0.041
GCAGGGGAGT	1.17 ± 0.29
GCAGGGTGTC	1.08 ± 0.048

Sequence	switch fluorescence ratio
GCAGGTATCA	1.018 ± 0.007
GCAGGTGGGG	1.1 ± 0.022
GCAGTAAAGC	1.03 ± 0.032
GCAGTAAGTT	0.978 ± 0.061
GCAGTAGTTA	1.03 ± 0.013
GCAGTCATTA	1.037 ± 0.0019
GCAGTGCCTA	0.993 ± 0.044
GCAGTGGTAC	2.41 ± 0.086
GCAGTTGGGT	0.986 ± 0.028
GCATAGAAAA	0.982 ± 0.015
GCATAGCCTG	0.98 ± 0.034
GCATAGTCTG	1.038 ± 0.0042
GCATAGTGGT	1.008 ± 0.01
GCATATCGGG	1.02 ± 0.017
GCATATTTTT	1.026 ± 0.0032
GCATCAAAGG	0.995 ± 0.013
GCATCCGGCG	1.04 ± 0.081
GCATCGGGCC	0.981 ± 0.026
GCATCTTCAC	1.0378 ± 0.00044
GCATCTTGGG	1 ± 0.029
GCATGACTGT	1.01 ± 0.024
GCATGATGGA	0.975 ± 0.022
GCATGCGGCT	1.03 ± 0.1
GCATGGAGTA	1.02 ± 0.029
GCATGGCGGC	1.01 ± 0.019
